For one substance, NanoBRET fold increase and EC50 results are on record in US20240132485A1, “HETEROCYCLIC CULLIN RING UBIQUITIN LIGASE COMPOUNDS AND USES THEREOF” (CEMM - FORSCHUNGSZENTRUM FÜR MOLEKULARE MEDIZIN GMBH, priority 2020, published 2024).

In experiment [1] the target is Nanoluc_DDB1 (N-terminal Nanoluc luciferase, G4S linker, DDB1 (FL)) (UniProt Q16531). The experiment is described as follows: NanoBRET in HEK293T cells, 10 µM compound Example 3-27; class B = 3-4 fold increase. A general note: In BRET a luciferase serves as donor, and the signal depends on an acceptor being close.
Experiment [2] shares this target. Nature of the experiment: NanoBRET in HEK293T cells, 10 µM compound Example 3-49; class B = 3-4 fold increase.
Experiment [3] has the same target. Nature of the experiment: NanoBRET in HEK293T cells, 10 µM compound Example 3-42; class A = greater than 4-fold increase.
Experiment [4] has the same target. Nature of the experiment: NanoBRET in HEK293T cells, 10 µM compound Example 3-44; class A = greater than 4-fold increase.
Experiment [5] has the same target. The experiment is described as follows: NanoBRET in HEK293T cells, 10-point titration of compound Example 3-14; class A = EC50<=0.25 µM.

Sequence of Nanoluc_DDB1 (N-terminal Nanoluc luciferase, G4S linker, DDB1 (FL)) (Q16531 other isoform, or with tags, fused parts or gaps): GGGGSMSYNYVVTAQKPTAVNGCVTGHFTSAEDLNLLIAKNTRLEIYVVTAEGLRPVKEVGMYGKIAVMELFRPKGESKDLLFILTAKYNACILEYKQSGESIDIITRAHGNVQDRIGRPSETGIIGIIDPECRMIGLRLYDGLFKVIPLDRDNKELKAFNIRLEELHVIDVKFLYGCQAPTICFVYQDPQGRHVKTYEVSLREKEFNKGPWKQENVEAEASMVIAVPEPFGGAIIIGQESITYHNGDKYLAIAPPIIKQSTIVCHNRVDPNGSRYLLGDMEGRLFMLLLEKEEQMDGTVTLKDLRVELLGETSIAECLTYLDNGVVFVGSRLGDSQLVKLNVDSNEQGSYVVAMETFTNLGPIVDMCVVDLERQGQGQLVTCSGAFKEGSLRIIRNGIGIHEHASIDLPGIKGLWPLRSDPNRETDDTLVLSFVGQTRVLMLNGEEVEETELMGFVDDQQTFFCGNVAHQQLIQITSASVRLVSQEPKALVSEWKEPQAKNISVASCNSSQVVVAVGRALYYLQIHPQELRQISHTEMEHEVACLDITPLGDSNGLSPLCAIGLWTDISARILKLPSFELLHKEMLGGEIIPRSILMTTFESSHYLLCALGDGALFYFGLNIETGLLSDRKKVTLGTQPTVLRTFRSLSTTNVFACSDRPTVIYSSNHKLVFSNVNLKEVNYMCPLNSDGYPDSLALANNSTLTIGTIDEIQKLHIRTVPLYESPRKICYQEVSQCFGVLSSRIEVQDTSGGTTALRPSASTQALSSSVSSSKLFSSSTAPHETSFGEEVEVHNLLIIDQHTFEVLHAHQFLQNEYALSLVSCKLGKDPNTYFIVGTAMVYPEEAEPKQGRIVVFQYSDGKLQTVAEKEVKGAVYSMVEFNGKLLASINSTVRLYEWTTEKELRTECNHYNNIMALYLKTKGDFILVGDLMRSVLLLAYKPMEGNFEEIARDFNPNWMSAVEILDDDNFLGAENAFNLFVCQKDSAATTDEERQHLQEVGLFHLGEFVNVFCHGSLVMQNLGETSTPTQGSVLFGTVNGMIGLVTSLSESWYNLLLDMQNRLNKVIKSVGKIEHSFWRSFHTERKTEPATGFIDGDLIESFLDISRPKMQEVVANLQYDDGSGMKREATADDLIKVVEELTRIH

Usually EC50 stands for the concentration needed to bring the measured effect to its halfway point. A high value points to a less potent agent. Turning to “HaloTag_CDK12 (N-terminal HaloTag, G4S linker, CDK12 (713-1052)) (from UniProt Q9NYV4 713-1052) (enzyme)”, the NanoBRET fold increase was 3 to 4 fold in experiment [1], 3 to 4 fold in experiment [2], over 4 fold in experiment [3] and over 4 fold in experiment [4]. Further, in experiment [5], the EC50 is under 250 nM.
